A word on the Kd: it is the free concentration of one partner at which half of the binding sites on the other are occupied at equilibrium, for simple one-to-one binding. Read a low Kd as higher affinity. What is called IC50 is the midpoint of a concentration-inhibition curve.

Here are results for 4 molecules from patent US20230365681A1 (CELGENE, published 2023).

In test [1] the target is T1, human CD47 extracellular domain (human, UniProt Q08722 19-139).
T1 construct: extracellular domain; also called human CD47 ECD; Hu CD47
T1 sequence (Q08722 19-139 limits assumed): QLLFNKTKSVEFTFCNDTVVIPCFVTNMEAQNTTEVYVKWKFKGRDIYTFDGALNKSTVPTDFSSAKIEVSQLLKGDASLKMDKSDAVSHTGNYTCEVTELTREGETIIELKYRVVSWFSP
The test can be described thus: method not given; human CD47, form not stated there.

The target of test [2] is T2, human CD47 on cells (human, UniProt Q08722 19-323).
T2 construct: whole, on cells; also called cell surface CD47; CD47 on Raji, OCI-Ly3, Fadu cells, human RBCs, platelets and blood cells
T2 sequence (Q08722 19-323): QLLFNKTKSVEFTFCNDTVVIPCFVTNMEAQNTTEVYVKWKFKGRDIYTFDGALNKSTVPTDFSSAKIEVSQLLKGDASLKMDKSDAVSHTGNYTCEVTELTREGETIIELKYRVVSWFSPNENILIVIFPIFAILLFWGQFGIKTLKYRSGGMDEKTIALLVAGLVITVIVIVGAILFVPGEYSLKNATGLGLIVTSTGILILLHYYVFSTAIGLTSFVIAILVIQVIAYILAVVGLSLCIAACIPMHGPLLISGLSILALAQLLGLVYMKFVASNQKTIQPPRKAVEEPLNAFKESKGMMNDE
The test can be described thus: blocking of human SIRPα binding to OCI-Ly3 cells; competitor SIRPα; TPP-23, parental high-affinity anti-CD47 IgG1; OCI-Ly3 cells.

For test [3], the target named is T2, human CD47 on cells. Kind of test: cell-based or functional assay.
Test [4] deals with T1, human CD47 extracellular domain. The test can be described thus: column HUMAN CD47 KD (µM); no assay named on the sheet, SPR with the CD47 ECD per Example 4.

B1: CC-90002 (antibody, V domains shown)
VH: QMQLVQSGAEVKKTGSSVKVSCKASGFNIKDYYLHWVRQAPGQALEWMGWIDPDQGDTEYAQKFQDRVTITRDRSMSTAYMELSSLRSEDTAMYYCNAAYGSSSYPMDYWGQGTTVTVSS
VL: NIQMTQSPSAMSASVGDRVTITCKASQDIHRYLSWFQQKPGKVPKHLIYRANRLVSGVPSRFSGSGSGTEFTLTISSLQPEDFATYYCLQYDEFPYTFGGGTKVEIK
notes: also called anti-CD47 monoclonal antibody CC-90002
In the case of B1, in test [1], the Kd came out at 0.54 nM.

B2: TPP-23 (408_437 Fab with IgG1) (antibody, V domains shown)
VH: QMQLVQSGAEVKKPGSSVKVSCKASGFNIKDYYLHWVRQAPGKGLEWMGWIDPDQGDTEYAQKFQGRVTITRDRSTSTAYMELRSLRAEDTAVYYCNAAYGSSSYPMDYWGQGTLVTVSS
VL: NIQMTQSPSSLSASVGDRVTITCRASQDIHRYLSWFQQKPGKVPKHLIYRANRLVSGVPSRFSGSGSGTEFTLTISSLQPEDFATYYCLQYDEFPYTFGGGTKVEIK
notes: The crystal structure was made with an anti-CD47 Fab of this antibody; also called parental CD47 mAb
As for B2, the IC50 in the test with human CD47 on cells [2] stood at 0.11 nM.

B3: TPP-1361 (bispecific antibody, human IgG1, kappa)
light 1: NIQMTQSPSSLSASVGDRVTITCQASQDIHRYLSWFQQDPGTVPQHLIYRESRFVDGVPSRFSGSGSGTEFTLTISSLQPEDFATYYCLQYDEFPYTFGGGTKVEIKRTVAAPSVFIFPPSDEELKSGTASVVCWLNNFYPREAKVQWKVDNALQSGNSEESVTEQDSKDSTYSLSSTLELSKADYEKHKVYACEVTHQGLSSPVTKSFNRGEC
heavy 1: QMQLVQSGAEVKKPGSSVKVSCKASGFNIKDYYLHWVRQAPGQGLEWMGWIDPDQGDTYYAQKFQGRVTITRDRSTSTAYMELASLTAEDTAVYYCNAAYGESSYPMDYWGQGTLVTVSSASTKGPSVFPLAPSSKSTSGGTAALGCLVKDYFPEPVTVSWNSGALTSGVHTFPAVLKSSGLYSLSSVVTVPSSSLGTQTYICNVNHKPSNTKVDKKVEPKSCDKTHTCPPCPAPELLGGPSVFLFPPKPKDTLMISRTPEVTCVVVDVSHEDPEVKFNWYVDGVEVHNAKTKPREEQYNSTYRVVSVLTVLHQDWLNGKEYKCKVSNKALPAPIEKTISKAKGQPREPQVYVLPPSREEMTKNQVSLLCLVKGFYPSDIAVEWESNGQPENNYLTWPPVLDSDGSFFLYSKLTVDKSRWQQGNVFSCSVMHEALHNHYTQKSLSLSPGK
light 2: QIVLSQSPAILSASPGEKVTMTCRASSSVSYIHWFQQKPGSSPKPWIYATSNLASGVPVRFSGSGSGTSYSLTISRVEAEDAATYYCQQWTSNPPTFGGGTKLEIKRTVAAPSVAIFPPSDERLKSGTASVVCVLNNFYPREAKVQWKVDNALQSGNSQESVTEQDSKDSTYSLSSRLTLSKADYEKHKVYACEVTHQGLSSPVTKSFNRGEC
heavy 2: QVQLQQPGAELVKPGASVKMSCKASGYTFTSYNMHWVKQTPGRGLEWIGAIYPGNGDTSYNQKFKGKATLTADKSSSTAYMQLSSLTSEDSAVYYCARSTYYGGDWYFNVWGAGTTVTVSAASTKGPSVFPLAPSSKSTSGGTAWLGCEVTDYFPEPVTVSWNSGALTSGVHTFPAVLESSGLYSLSSVVTVPSSSLGTQTYICNVNHKPSNTKVDKKVEPKSCDKTHTCPPCPAPELLGGPSVFLFPPKPKDTLMISRTPEVTCVVVDVSHEDPEVKFNWYVDGVEVHNAKTKPREEQYNSTYRVVSVLTVLHQDWLNGKEYKCKVSNKALPAPIEKTISKAKGQPREPQVYVYPPSREEMTKNQVSLTCLVKGFYPSDIAVEWESNGQPENNYKTTPPVLDSDGSFALVSKLTVDKSRWQQGNVFSCSVMHEALHNHYTQKSLSLSPGK
notes: Four-chain IgG1 heterodimer; also called CD47xCD20 bispecific
With B3, in the test with human CD47 on cells [3], the “EC50 of macrophage phagocytosis of OCI-Ly3 cells, OCI-Ly3 Mφ EC50 (µg/mL) REPEAT” value stood at 0.45 µg/mL and the “EC50 of macrophage phagocytosis of OCI-Ly3 cells, column OCI-Ly3 Mφ EC50” value amounted to 0.5 µg/mL. The dissociation constant (Kd) in test [4] amounted to 2530 nM.

B4: TPP-1367 (bispecific antibody, human IgG1, kappa)
anti-CD47 light chain: NIQMTQSPSSLSASVGDRVTITCRASQDIHRYLSWFQQKPGKVPKHLIYRANRLVSGVPSRFSGSGSGTEFTLTISSLQPEDFATYYCLQYDEFPYTFGGGTKVEIKRTVAAPSVFIFPPSDEELKSGTASVVCWLNNFYPREAKVQWKVDNALQSGNSEESVTEQDSKDSTYSLSSTLELSKADYEKHKVYACEVTHQGLSSPVTKSFNRGEC
anti-CD47 heavy chain: QMQLVQSGAEVKKPGSSVKVSCKASGFNIKDYYLHWVRQAPGKGLEWMGWIDPDQGDTYYAQKFQGRVTITRDRSTSTAYMELRSLRAEDTAVYYCNAAYGESSYPMDYWGQGTLVTVSSASTKGPSVFPLAPSSKSTSGGTAALGCLVKDYFPEPVTVSWNSGALTSGVHTFPAVLKSSGLYSLSSVVTVPSSSLGTQTYICNVNHKPSNTKVDKKVEPKSCDKTHTCPPCPAPELLGGPSVFLFPPKPKDTLMISRTPEVTCVVVDVSHEDPEVKFNWYVDGVEVHNAKTKPREEQYNSTYRVVSVLTVLHQDWLNGKEYKCKVSNKALPAPIEKTISKAKGQPREPQVYVLPPSREEMTKNQVSLLCLVKGFYPSDIAVEWESNGQPENNYLTWPPVLDSDGSFFLYSKLTVDKSRWQQGNVFSCSVMHEALHNHYTQKSLSLSPGK
anti-CD20 light chain: QIVLSQSPAILSASPGEKVTMTCRASSSVSYIHWFQQKPGSSPKPWIYATSNLASGVPVRFSGSGSGTSYSLTISRVEAEDAATYYCQQWTSNPPTFGGGTKLEIKRTVAAPSVAIFPPSDERLKSGTASVVCVLNNFYPREAKVQWKVDNALQSGNSQESVTEQDSKDSTYSLSSRLTLSKADYEKHKVYACEVTHQGLSSPVTKSFNRGEC
anti-CD20 heavy chain: QVQLQQPGAELVKPGASVKMSCKASGYTFTSYNMHWVKQTPGRGLEWIGAIYPGNGDTSYNQKFKGKATLTADKSSSTAYMQLSSLTSEDSAVYYCARSTYYGGDWYFNVWGAGTTVTVSAASTKGPSVFPLAPSSKSTSGGTAWLGCEVTDYFPEPVTVSWNSGALTSGVHTFPAVLESSGLYSLSSVVTVPSSSLGTQTYICNVNHKPSNTKVDKKVEPKSCDKTHTCPPCPAPELLGGPSVFLFPPKPKDTLMISRTPEVTCVVVDVSHEDPEVKFNWYVDGVEVHNAKTKPREEQYNSTYRVVSVLTVLHQDWLNGKEYKCKVSNKALPAPIEKTISKAKGQPREPQVYVYPPSREEMTKNQVSLTCLVKGFYPSDIAVEWESNGQPENNYKTTPPVLDSDGSFALVSKLTVDKSRWQQGNVFSCSVMHEALHNHYTQKSLSLSPGK
notes: IgG1 1+1 heterodimer; also called CD47/CD20 TPP1367; CD47xCD20 bispecific
Regarding B4, in the test with human CD47 on cells [3], the “EC50 of macrophage phagocytosis of OCI-Ly3 cells, OCI-Ly3 Mφ EC50 (µg/mL) REPEAT” value was 0.046 µg/mL and the “EC50 of macrophage phagocytosis of OCI-Ly3 cells, column OCI-Ly3 Mφ EC50” value was 0.064 µg/mL. This molecule also had a Kd in test [4] of 430 nM.
